According to paper PMC11348317 (Proceedings of the National Academy of Sciences of the …, 2024):

Biological target: the molecule itself
Test: FRET or BRET

B1: Escherichia coli transthyretin-related protein (EcTRP), single Cys variant Asn94Cys with N-terminal His5-tag, fluorophore-labelled (enzyme, UniProt P76341 24-137, looked up)
chain: AQQNILSVHILNQQTGKPAADVTVTLEKKADNGWLQLNTAKTDKDGRIKALWPEQTATTGDYRVVFKTGDYFKKQNLESFFPEIPVEFHINKVCEHYHVPLLLSQYGYSTYRGS
modifications: Cys94 labelled with DyLight 550 maleimide (FRET donor) or Alexa 647 maleimide (FRET acceptor)
- half-life of subunit exchange: > 30 h
